The source of these data is patent US20260062442A1, “COMPOSITIONS AND METHODS FOR PURIFYING ANTIGEN-BINDING ANTIBODY FRAGMENTS USING PEPTIDE LIGANDS” (North Carolina State University, priority 2022, published 2026).

The subject of one assay is scFv13R4. The experiment in a line: Purification of scFv from P. pastoris perfusate. As to conditions: scFv eluted at 0.1 M glycine pH 2.5, not at pH 4. The protocol:
Preparation of spiked feedstock. A wild-type X33 P. pastoris strain was obtained from ThermoFisher Scientific as an agar stab. This stab was used to create freezer stocks, which were stored at −80° C. A vial from the freezer stock was thawed, plated on a yeast extract peptone dextrose (YPD) agar plate, and incubated at 30° C. A single colony was then used to inoculate a 1 L vented shake flask containing 100 mL of Buffered Glycerol-complex Medium (BMGY), and the flask was incubated at 250 rpm at 30° C. A 300 mL bioreactor connected to a perfusion device was prepared and inoculated with cells harvested from the shake flask. After an initial growth phase, the perfusion system was activated, and fluid was continuously extracted from the bioreactor at a rate of 1.5 vessel volumes per day (VVD) while retaining the cells. Simultaneously to activating the perfusion system, a 2% v/v methanol feedstock containing IgG at 0.5 mg/mL began to be fed continuously into the bioreactor at 1.5 VVD. […]
Purification of scFv from P. pastoris perfusate. […] Washing, elution, and regeneration steps were all performed at 0.5 mL/min (231 cm/h), while the effluent was continuously monitored by UV spectrophotometry at 280 nm. […] The collected fractions were analyzed via non-reducing SDS-PAGE analysis after concentration and diafiltration to PBS at pH 7.4 by a 10 kDa MWCO spin concentrator.

The test system of assay [1] is human polyclonal Fab. Briefly: Dynamic binding of human polyclonal Fab on peptide-Toyopearl resins (chromatograms). Conditions: residence time 2 min; for binding of human polyclonal Fab (chromatogram): human polyclonal Fab at 2 mg/mL in PBS; for amount of human Fab that flowed through: human Fab at 2 mg/mL in PBS. The procedure: (§1) Dynamic binding of human Fab-κ and Fab-λ in non-competitive condition. The peptides listed in Table 3 were synthesized on Toyopearl resins as described herein, and the resulting adsorbents were packed into 0.1 mL (30×2.1 mm) columns, installed on a Waters Alliance 2695 HPLC system (Milford, MA), and equilibrated with PBS at pH 7.4. […] The subsequent chromatographic steps of washing with PBS, elution with 0.2 M acetate buffer pH 4, regeneration with 0.1 M glycine buffer pH 2.5, and equilibration with PBS were all performed at 348 cm/h. The dynamic binding protocol was repeated with 50 μL of human Fab-κ and Fab-λ, both at 1 mg/mL in PBS. The column effluent was continuously monitored at 280 nm by UV spectrophotometry. The yield was determined by peak area analysis and determined by taking the area of the elution peak divided by the flow-through, elution, and regeneration peak areas. Finally, the dynamic binding capacity at 10% flowthrough of […]-Toyopearl resin was measured via continuous loading of a solution of human polyclonal Fab at either 1, 2, or 5 mg/mL in PBS at the linear velocity of either 173, 87, or 35 cm/h, corresponding to the residence times (RT) of 1, 2, and 5 min, until reaching saturation of the adsorbent. The dynamic binding capacity of Protein L-agarose resin was measured via continuous loading of human polyclonal Fab at 1 mg/mL in PBS at the linear velocity of either 173 or 87 cm/h, corresponding to RT of 1 and 2 min, until reaching saturation of the adsorbent.
Secondary selection of Fab-binding peptide ligands via dynamic binding studies. The candidate ligands selected from library screening were conjugated to Toyopearl AF-Amino-650M resin and evaluated via Fab binding studies in dynamic mode. Toyopearl resin was selected for chromatographic evaluation owing to its low non-specific protein adsorption, low compressibility, and strong chemical stability. The residence time of 2 minutes (RT: 2 min) was adopted to mimic the loading conditions utilized in industrial bioprocessing. A solution of human polyclonal Fab at 2 mg/mL in PBS was adopted as feedstock to discern ligands that either bind all Fab or target selectively Fab-κ or Fab-λ; accordingly, the top ligands by elution peak area were subjected to further analysis with either pure k or λ subtypes. Finally, in line with library screening, A 0.2 M acetate buffer was utilized at pH 4 for Fab elution; this value of pH is sufficient to ensure high yield without compromising the integrity and bioactivity of the product. This represents a distinct advantage of peptide ligands with moderate affinity compared to high-affinity protein ligands; for comparison, Protein L as well as KappaSelect and LambdaFabSelect resins require elution at pH 2.5-3.

The test system of the next assay is human Fab-κ. The experiment in a line: Dynamic binding of human Fab-κ in non-competitive condition on peptide-Toyopearl resins. As to conditions: κ and λ Fabs, 1 mg/mL in PBS, residence time 2 min. The protocol:
as §1, with “The dynamic binding capacity of Protein L-agarose resin was measured via continuous loading of human polyclonal Fab at 1 mg/mL in PBS at the linear velocity of either 173 or 87 cm/h, corresponding to RT of 1 and 2 min, until reaching saturation of the adsorbent.” left out

Assay [2] relates to human polyclonal Fab. Briefly: Dynamic binding capacity at 10% breakthrough with human polyclonal Fab in PBS. Conditions: RT of 2 min, range. The protocol:
as §1, with “The dynamic binding capacity of Protein L-agarose resin was measured via continuous loading of human polyclonal Fab at 1 mg/mL in PBS at the linear velocity of either 173 or 87 cm/h, corresponding to RT of 1 and 2 min, until reaching saturation of the adsorbent.” left out

The target in assay [3] is engineered monoclonal Fab-κ (0.171 mg/mL in clarified CHO-K1 cell culture harvest). Briefly: capture from CHO-K1 CCCF with engineered Fab 0.171 mg/mL, elution pH 2.5; yield by anti-human Fab ELISA.
The test system of another assay is monoclonal Fab-κ. Conditions: cited from earlier work.
For assay [4], the target named is human Fab-κ (human). Briefly: equilibrium adsorption isotherm on resin, Langmuir fit.
In assay [5] the target is human polyclonal Fab (human). The assay is described as above.
Assay [6] addresses human Fab-λ (human). The experiment in a line: dynamic binding on peptide-Toyopearl column, Fab 1 mg/mL in PBS, residence time 2 min, elution pH 4; yield = elution peak area over total peak area.
The target of assay [7] is human Fab-κ (human). The assay is described as above.
For assay [8], the target named is human polyclonal Fab (human). Briefly: dynamic binding capacity at 10% breakthrough, Fab 1 mg/mL in PBS, residence time 2 min.
Assay [9] addresses human polyclonal Fab (human). Briefly: dynamic binding capacity at 10% breakthrough, Fab 1 mg/mL in PBS, residence time 5 min.
Assay [10] has as its target human polyclonal Fab (human). Briefly: capture from null CHO-S CCCF spiked with human Fab 1 mg/mL, elution pH 4; yield by anti-human Fab ELISA. A general note: In an ELISA, binding on a coated surface is turned into a signal by an enzyme label.
In assay [11] the target is human polyclonal Fab (human). The experiment in a line: dynamic binding capacity at 10% breakthrough, Fab 5 mg/mL in PBS, residence time 2 min.
Assay [12] concerns the target engineered monoclonal Fab-κ (0.171 mg/mL in clarified CHO-K1 cell culture harvest). The experiment in a line: capture from CHO-K1 CCCF with engineered Fab 0.171 mg/mL, elution pH 4; yield by anti-human Fab ELISA.
The target of assay [13] is human polyclonal Fab (human). Briefly: dynamic binding capacity at 10% breakthrough, Fab 5 mg/mL in PBS, residence time 1 min.
In assay [14] the target is human polyclonal Fab (human). Briefly: dynamic binding capacity at 10% breakthrough, Fab 1 mg/mL in PBS, residence time 1 min.
In assay [15] the target is Certolizumab pegol. The experiment in a line: capture from null CHO-S CCCF spiked with Certolizumab 1 mg/mL, elution pH 4; yield by anti-human Fab ELISA.
Assay [16] deals with human polyclonal IgG (human). The experiment in a line: capture of IgG 0.5 mg/mL from P. pastoris perfusate, elution pH 4; yield by Protein G HPLC.
In assay [17] the target is human Fab-λ (human). Briefly: dynamic binding on peptide-Toyopearl column, Fab 1 mg/mL in PBS, residence time 2 min.
The target in assay [18] is human Fab-κ (human). The description is as above.
Assay [19] deals with human polyclonal IgG (human). The experiment in a line: dynamic binding capacity at 10% breakthrough, P. pastoris perfusate with IgG 0.5 mg/mL, residence time 2 min.
Assay [20] deals with human polyclonal Fab (human). Briefly: dynamic binding capacity at 10% breakthrough, Fab 2 mg/mL in PBS, residence time 2 min.
Assay [21] addresses Certolizumab pegol. The experiment in a line: capture from CHO-S CCCF spiked with Certolizumab 1 mg/mL, elution pH 4.
Assay [22] deals with human polyclonal Fab (human). Briefly: dynamic binding on peptide-Toyopearl column, human Fab 2 mg/mL in PBS, residence time 2 min.

Ends that are not written are not given here.

Consider FRWNFHRNTFFP, for which the “relative affinity for scFv vs Fab” value in the assay with scFv13R4 was “higher affinity for scFv than Fab”. Further, the “binding of human polyclonal Fab (chromatogram)” value in the assay on human polyclonal Fab [1] is “very low flow-through peak area”. Further, the “fraction of the loaded Fab bound” value in the assay on human Fab-κ was “approximately 90%”. The molecule further showed a DBC10% with human polyclonal Fab [2] of 6 to 16 mg/mL.
As to Protein L-agarose resin, the Yield in [3] was found to be 91%.
With “WIPNSEFEHERTK [B1, peptide ligand for monoclonal Fab-κ identified by Nascimento et al]”, the “binding of human polyclonal Fab (chromatogram)” value in the assay on human polyclonal Fab [1] is listed as “failed to bind”. In addition, the “affinity for two other monoclonal Fabs” value in the assay with monoclonal Fab-κ is reported as “little-to-no affinity”.
With “HQNHHSTFRWEIY [C7, variant peptide ligand developed by Nascimento et al]”, the “amount of human Fab that flowed through” value in the assay on human polyclonal Fab [1] was determined as 79%.
As for Protein L-Sepharose resin, in the assay with human Fab-κ (human) [4], the Kd (as a rule, the constant that tells how readily two partners part at equilibrium) worked out at 30.9 nM and the Qmax (mg per mL of resin) is 20.7.
As for “WHYNWQDVSDRQ [A5, variant peptide ligand developed by Nascimento et al]”, in the assay on human polyclonal Fab [1], the “amount of human Fab that flowed through” value amounted to 61%.
As for IIHRRAFWWFPN, in the assay on human Fab-κ, the “fraction of the loaded Fab bound” value is on record as “approximately half”.
Turning to IIHRRAFWWFPN (also: C-terminus attached to Toyopearl AF-Amino-650M resin or ChemMatrix bead), in the assay with human Fab-κ (human) [4], the Kd was found to be 5820 nM and the Qmax (mg per mL of resin) was 11.9. In assay [5], this molecule had a Kd of 5140 nM and a Qmax (mg per mL of resin) of 13.5. This molecule also displayed a Fab-λ Yield in the assay with human Fab-λ (human) [6] of 66%. In addition, the Fab-κ Yield with human Fab-κ (human) [7] amounted to 55%.
In the assay with human Fab-λ (human) [6], IRHHNIWFNTIA (also: C-terminus attached to Toyopearl AF-Amino-650M resin or ChemMatrix bead) came in with a Fab-λ Yield of 42%. The molecule also showed a Fab-κ Yield with human Fab-κ (human) [7] of 42%.
On to RWTIWPPNWHPP (also: C-terminus attached to Toyopearl AF-Amino-650M resin or ChemMatrix bead), for which, in the assay with human Fab-λ (human) [6], the Fab-λ Yield is 53%. Further, in the assay with human Fab-κ (human) [7], the Fab-κ Yield came to 40%.
Regarding FRWNFHRNTFFP (also: C-terminus attached to Toyopearl AF-Amino-650M resin or ChemMatrix bead), the DBC10% (mg Fab per mL of resin) in assay [8] was determined as 6; in [9], 7; in assay [11], 16.5; in assay [13], 15.5; in assay [14] it was 4.5; in [20], 10.9. Also, the Yield in assay [10] is 94.1%; in assay [12] it was 93.3%; with Certolizumab pegol [15], 96%; in assay [16] it was 33%; with Certolizumab pegol [21], 96.5%. In addition, the percent of the load bound with human Fab-λ (human) [17] and with human Fab-κ (human) [18] was 90% throughout. In [19], this molecule registered a DBC10% (mg IgG per mL of resin) of 13.4. The same molecule displayed a DBC10% (mg IgG per mL resin) in assay [19] of 13.4. The Kd turned out to be 2050 nM in the assay with human Fab-κ (human) [4] and 2160 nM in [5]. Further, the Qmax (mg per mL of resin) in the assay with human Fab-κ (human) [4] was determined as 19; in assay [5], 20.4. In addition, the Fab-λ Yield in the assay with human Fab-λ (human) [6] was 91%. The molecule also gave a Fab-κ Yield in the assay with human Fab-κ (human) [7] of 89%.
WHYNWQDVSDRQ (also: attached to Toyopearl resin, site not given here) registered a percent of human Fab that flowed through (unbound) in [22] of 61%.
Turning to HQNHHSTFRWEIY (also: attached to Toyopearl resin, site not given here), the percent of human Fab that flowed through (unbound) in assay [22] amounted to 79%.
